Source: article PMC4084727

Experiments:
GST-Freud-2 (GST-hF2) [1] = biological target: T1, GST-Freud-2 (GST-hF2) (Homo sapiens, UniProt Q5T0F9 1-858); experiment: competition
T1 sequence: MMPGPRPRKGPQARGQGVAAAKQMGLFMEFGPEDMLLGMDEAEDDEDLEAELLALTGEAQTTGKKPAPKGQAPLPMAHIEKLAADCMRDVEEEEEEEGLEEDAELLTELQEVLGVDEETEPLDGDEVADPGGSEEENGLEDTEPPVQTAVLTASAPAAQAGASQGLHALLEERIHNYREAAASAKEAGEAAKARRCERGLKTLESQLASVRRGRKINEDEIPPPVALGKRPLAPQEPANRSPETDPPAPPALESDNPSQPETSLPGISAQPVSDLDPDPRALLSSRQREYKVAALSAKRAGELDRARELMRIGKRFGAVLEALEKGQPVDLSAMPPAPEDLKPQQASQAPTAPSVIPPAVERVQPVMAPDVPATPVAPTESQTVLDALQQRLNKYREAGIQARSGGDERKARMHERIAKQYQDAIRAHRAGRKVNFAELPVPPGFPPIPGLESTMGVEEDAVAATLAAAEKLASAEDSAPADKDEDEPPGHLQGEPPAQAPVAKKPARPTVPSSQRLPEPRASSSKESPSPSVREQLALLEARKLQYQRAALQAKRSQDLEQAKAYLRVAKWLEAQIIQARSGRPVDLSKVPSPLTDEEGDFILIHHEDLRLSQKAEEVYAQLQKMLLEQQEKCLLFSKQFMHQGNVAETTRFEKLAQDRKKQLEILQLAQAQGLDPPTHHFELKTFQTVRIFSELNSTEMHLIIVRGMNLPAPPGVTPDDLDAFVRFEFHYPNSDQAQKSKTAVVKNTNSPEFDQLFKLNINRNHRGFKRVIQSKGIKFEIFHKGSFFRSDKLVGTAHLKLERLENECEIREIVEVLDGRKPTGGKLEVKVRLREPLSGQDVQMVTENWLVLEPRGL

GST-Freud-2 (GST-hF2) [2] = biological target: T1, GST-Freud-2 (GST-hF2); experiment: competition; remark: listed apart in the source
GST-Freud-2 (GST-hF2) [3] = biological target: T1, GST-Freud-2 (GST-hF2); experiment: EMSA
GST-Freud-2 (GST-hF2) [4] = biological target: T1, GST-Freud-2 (GST-hF2); experiment: EMSA; remark: listed apart in the source
GST-Freud-2 (GST-hF2) [5] = biological target: T1, GST-Freud-2 (GST-hF2); experiment: competition; remark: listed apart in the source

B1: 16-bp 5' (-1613/-1598) (dsDNA)
DNA 1: TAAAACATTTGCCAGA
DNA 2: TCTGGCAAATGTTTTA
Does B1 bind (GST-Freud-2 (GST-hF2) [1])?
Result: binds

B2: 19-bp 3' (-1597/-1578) (dsDNA)
DNA 1: AGGTGGCGACATAAAACCT
DNA 2: AGGTTTTATGTCGCCACCT
Does B2 bind (GST-Freud-2 (GST-hF2) [2])?
Result: binds

B3: 5'-DRE (-1624/-1598) (dsDNA)
DNA 1: AGATGGCACTCTAAAACATTTGCCAGA
DNA 2: TCTGGCAAATGTTTTAGAGTGCCATCT
Does B3 bind (GST-Freud-2 (GST-hF2) [3])?
Result: binds

B4: 3'-DRE (-1597/-1565) (dsDNA)
DNA 1: AGGTGGCGACATAAAACCTCATTGCTTAGAACT
DNA 2: AGTTCTAAGCAATGAGGTTTTATGTCGCCACCT
Does B4 bind (GST-Freud-2 (GST-hF2) [4])?
Result: binds

B5: 17-bp 5' (-1624/-1608) (dsDNA)
DNA 1: AGATGGCACTCTAAAAC
DNA 2: GTTTTAGAGTGCCATCT
Does B5 bind (GST-Freud-2 (GST-hF2) [1])?
Result: binds

B6: 12-bp 3' (-1578/-1566) (dsDNA)
DNA 1: CATTGCTTAGAA
DNA 2: TTCTAAGCAATG
Does B6 bind (GST-Freud-2 (GST-hF2) [5])?
Result: no binding
